In patent US20120231006A1 (Amgen, published 2012):

How the values were obtained:
[1] = molecular target: human Orai3 (human, UniProt Q9BRQ5 1-295); test: FACS, 293EBNA transfectants
Description: (§1) Purified monoclonal antibodies from hybridoma supernantants of the subclones derived from initial hits were assessed for binding to human Orai1, Orai2 and Orai3 expressed on HEK-293-EBNA cells along with vector transfected control parental cells. Cells stained with or without primary mAbs were counter-stained with a secondary phycoerythrin-labeled goat (“Gt”) anti-human (“Hu”) IgG F(ab′)₂ antibody fragment and visualized using FACS.
(§2) FACS binding analysis. Transfected 293EBNA cells transiently expressed hOrai1, human Orai2, or human Orai3 (results of binding comparison in FIG. 11A-B), or hOrai1(S218G) (results of binding comparison in FIG. 12A-B); or hOrai1 and hSTIM1; mOrai1 and mouse STIM1; or rat Orai1 and rat STIM1 (results of binding comparison in FIG. 13). The transfected cells were harvested at 48 hours post-transfection. Cells transfected with pcDNA3.1 were used as negative controls. Cells were washed once with ice-cold 1×PBS, resuspended in ice-cold FACS buffer (1×D-PBS+2% goat serum), and 2×10⁵ cells in […] were stained per antibody combination. All antibody incubation steps were performed on ice for 1 hour. […] Next, the unlabelled antibody was detected using goat F(ab′)₂ anti-mouse or anti-human IgG-phycoerythrin (IgG-PE), followed by a wash with 200 μL of ice-cold FACS buffer before flow cytometry analysis. Unstained cells and cells stained with detecting antibodies were used as negative controls. The values of relative level of fluorescence were calculated using FCS Express (De Novo Software) and mean values were calculated using log-transformed data (geometric mean). Purified mAbs were assessed by FACS assay for their ability to specifically bind human Orai1, Orai2 and Orai3 proteins expressed on HEK-293 cells.

[2] = molecular target: T1, human Orai2 (human, UniProt Q96SN7 1-254); test: FACS, 293EBNA transfectants
T1 construct: also called hOrai2
T1 sequence (Q96SN7 whole entry): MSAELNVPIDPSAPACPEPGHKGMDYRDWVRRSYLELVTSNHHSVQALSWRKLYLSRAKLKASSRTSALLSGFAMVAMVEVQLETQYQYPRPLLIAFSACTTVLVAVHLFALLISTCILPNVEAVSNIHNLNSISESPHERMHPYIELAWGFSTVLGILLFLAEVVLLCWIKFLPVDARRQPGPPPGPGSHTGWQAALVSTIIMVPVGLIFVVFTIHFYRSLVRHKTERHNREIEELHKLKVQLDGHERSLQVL
Description: as §1, §2

[3] = molecular target: T2, human Orai1 (human, UniProt Q96D31 1-301); test: cell-based or functional assay
T2 sequence (Q96D31 whole entry): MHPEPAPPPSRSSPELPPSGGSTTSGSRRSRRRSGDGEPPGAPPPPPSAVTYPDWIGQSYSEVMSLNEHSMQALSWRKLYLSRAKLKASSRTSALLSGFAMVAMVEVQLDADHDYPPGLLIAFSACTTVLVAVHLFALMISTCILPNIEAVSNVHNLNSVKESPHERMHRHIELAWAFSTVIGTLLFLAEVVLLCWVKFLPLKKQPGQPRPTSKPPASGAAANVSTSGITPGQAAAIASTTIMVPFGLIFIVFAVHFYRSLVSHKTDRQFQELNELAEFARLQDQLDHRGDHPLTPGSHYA

[4] = molecular target: T3, mOrai1-hOrai1 ECL2 (VIV) protein (human/mouse chimera, UniProt Q8BWG9 1-304 (mouse entry)); test: FACS, 293EBNA, RFI-POC grade; set-up: concentration or dose not given beside the values
T3 construct: also called Ch
T3 sequence (Q8BWG9 other isoform, or with tags, fused parts or gaps): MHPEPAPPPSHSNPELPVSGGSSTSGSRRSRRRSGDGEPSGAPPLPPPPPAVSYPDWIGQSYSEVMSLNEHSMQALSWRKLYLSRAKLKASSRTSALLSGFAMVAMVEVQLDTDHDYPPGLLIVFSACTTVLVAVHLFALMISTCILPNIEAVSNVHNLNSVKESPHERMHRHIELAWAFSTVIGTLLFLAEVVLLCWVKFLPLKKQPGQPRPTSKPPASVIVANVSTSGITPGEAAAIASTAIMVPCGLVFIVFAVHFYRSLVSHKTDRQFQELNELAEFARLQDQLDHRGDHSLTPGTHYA
From the text: FIG. 16A-D illustrates the results of FACS analysis showing binding to the indicated mOrai1-hOrai1 ECL2 chimeric mutants expressed on the surface of HEK-293-EBNA cells. Transfected cells were stained first with recombinant monoclonal antibodies then counter-stained with a secondary phycoerythrin-labeled goat (“Gt”) anti-human (“Hu”) IgG F(ab′)₂ antibody fragment and visualized using FACS. In FIG. 16B and FIG. 16D, The values of Relative Fluorescence Intensity as Percent of Control (RFI-POC) are calculated from the relative fluorescence intensity geometric mean (Geo Mean). The geometric mean is an average calculated by multiplying a series of numbers and taking the nth root where n is the number of numbers in the series. It is a statistical average of a set of transformed numbers often used to represent a central tendency in a highly variable data set that minimizes the effects of extreme values.
Table 11A and Table 11B feature a schematic representation of the POC data from FIG. 16B and FIG. 16D, respectively, where the binding results are recorded as (+++) denoting binding POC from 40% to 100%, (++) for POC of 5% to less than 40%, (+) for POC from 1% to less than 5% and (−) as lack of binding with POC less than 1%.

[5] = molecular target: T2, human Orai1; test: FACS Kd, AM1-CHO/hOrai1/hSTIM1-YFP cells
Description: The equilibrium plates were centrifuged at 500 g for 3 minutes and cell pellets were washed twice with 200 μL of ice cold FACS buffer (1×D-PBS+2% FBS). The cells were then incubated with a secondary antibody, goat anti-human Fc Cy5 at 5 μg/mL and 100 μL per well for 1 h on ice in the dark. Following the incubation, the cells were washed twice with 200 μL of ice-cold FACS buffer before flow cytometry analysis. The GeoMean values gated on live cell population measure the bound [Ab]. The inverse of the GeoMean values that reflects theoretical free [Ag] in the equilibrium solution was then calculated. The inverse values of the GeoMean read were used in KinExA® Pro software for analysis and Kd calculation for each antibody. The free [Ag] measure was plotted against the starting concentration of titrating component and from these plots at two different cell concentrations the Kd was obtained from curve fitting using n-curve analysis in KinExA Pro software. […] Shown in Table 14 (below) are the equilibrium dissociation constant (Kd) values of invented mAbs determined by FACS Kd measurement.

[6] = molecular target: T4, hOrai1-mOrai1 ECL2 chimeric protein (human/mouse chimera, UniProt Q96D31 1-301); test: FACS, 293EBNA transfectants
T4 construct: human Orai1 with mouse ECL2; also called Ch
T4 sequence (Q96D31 other isoform, or with tags, fused parts or gaps mutant): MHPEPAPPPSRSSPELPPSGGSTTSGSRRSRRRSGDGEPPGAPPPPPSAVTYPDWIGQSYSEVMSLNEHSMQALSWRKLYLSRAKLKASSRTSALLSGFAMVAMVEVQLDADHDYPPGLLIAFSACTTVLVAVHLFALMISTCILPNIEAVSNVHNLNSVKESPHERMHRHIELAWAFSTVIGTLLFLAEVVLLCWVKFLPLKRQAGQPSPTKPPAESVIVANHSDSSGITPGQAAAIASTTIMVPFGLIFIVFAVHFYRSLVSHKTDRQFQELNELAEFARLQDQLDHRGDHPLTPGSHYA
From the text: FIG. 15A-B illustrates the results of FACS analysis showing binding to human Orai1 extracellular loop 2-mouse Orai1 mutant expressed on the surface of HEK-293-EBNA cells. HEK-293-EBNA cells were transiently transfected with mouse Orai1 mutant where human Orai1 extracellular loop 2 replaced the mouse Orai1 extracellular loop 2 and human Orai1 mutant where mouse Orai1 extracellular loop 2 replaced human extracellular loop 2. Transfected cells were stained first with recombinant monoclonal antibodies then counter-stained with a secondary phycoerythrin-labeled goat (“Gt”) anti-human (“Hu”) IgG F(ab′)₂ antibody fragment and visualized using FACS.
FACS binding analysis. Transfected 293EBNA cells transiently expressed hOrai1-mOrai1 ECL2 or mOrai1-hOrai1 ECL2 chimera. The transfected cells were harvested at 48 hours post-transfection. Cells transfected with pcDNA3.1 were used as negative controls. Cells were washed once with ice-cold 1×PBS, resuspended in ice-cold FACS buffer (1×D-PBS+2% goat serum), and 2×10⁵ cells in 100 μL were stained per antibody combination. All antibody incubation steps were performed on ice for 1 hour. […] Next, the unlabelled antibody was detected using goat F(ab′)₂ anti-mouse or anti-human IgG-phycoerythrin (IgG-PE), followed by a wash with 200 μL of ice-cold FACS buffer before flow cytometry analysis. Unstained cells and cells stained with detecting antibodies were used as negative controls. The values of relative level of fluorescence were calculated using FCS Express (De Novo Software) and mean values were calculated using log-transformed data (geometric mean). The results of the FACS analysis are shown in FIG. 15A-B, which supports the conclusion that the hOrai1 ECL2 domain is the region of hOrai1 where antibodies of the present invention bind.

binding result [1] | binding result [2] | IC50 IFN-γ, whole blood Donor A [3] | IC50 IFN-γ, whole blood Donor B [3] | IC50 IL-2, whole blood Donor A [3] | IC50 IL-2, whole blood Donor B [3] | POC (percent of control, FACS Geo Mean relative to binding to Ch. 1) [4] | Kd [5] | binding result [6] | Binder
no binding (tested: 1 µg) | no binding (tested: 1 µg) | 4.83 nM | 2.76 nM | 1.88 nM | 1.21 nM | 40 to 100% | 1.2 nM | no binding (tested: 1 µg) | mAb 5A4.2 (antibody, human IgG2, lambda, V domains shown, fully human IgG2 lambda, Campaign 2) VH: QVQLVQSGAEVKKPGASVKVSCKASGYTFTDYYMNWVRQAPGQGLEWMGWINPNSGGTKYAQKFQGRVTMTRDTSIRTAYMELSRLRSDDTAVYYCSREYGGNSDWFDPWGQGTLVTVSS VL: QSVLTQPPSVSGAPGQRVTISCTGSSSNIGAGYDVHWYQQLPGTAPKLLIYGNSNRPSGVPDRFSGSKSGTSASLAITGLQAEDEADYYCQSYDNRLSDSVVIGGGTKLTVQG
no binding (tested: 1 µg) | no binding (tested: 1 µg) | 7.4 nM | 10.7 nM | 2.73 nM | 4.45 nM | 40 to 100% | 0.443 nM | no binding (tested: 1 µg) | mAb 5B1.1 (antibody, human IgG2, lambda, V domains shown, fully human IgG2 lambda, Campaign 2; also called mAb 5Bl1.1) VH: QVQLVQSGAEVKKPGASVKVSCKASGYTFTDYYINWVRQAPGQGLEWMGWINPNSGGSSYAQKFQGRVTMTRDTSISTAHMELIRLRSDDTAVYYCARERGGIEDWFDPWGQGTLVTVSS VL: QSVLTQPPSVSGAPGQRVTISCTGSSSNIGAGYDVHWYQQLPGTAPKLLIYGNSNRPSGVPDRFSGSKSGTSASLAITKFQAEDEAVYYCQSYGSGLSGVVFGGGTKLTVLG
no binding (tested: 1 µg) | no binding (tested: 1 µg) | – | – | 4.83 nM | 3.79 nM | 40 to 100% | 0.767 nM | no binding (tested: 1 µg) | mAb 5F2.1 (antibody, human IgG2, lambda, V domains shown, fully human IgG2 lambda, Campaign 2) VH: QVQLVQSGAEVKKPGASVKVSCKASGYTFTDYYMNWVRQAPGQGLEWMGWINPNSGGTHYAQKFQGRVTMTRDTSISTAYMELSRLRSDDTAVYYCAREYGGYSDWFDPWGQGTLVTVSS VL: QSVLTQPPSVSGAPGQRVTISCTGSRSNIGAGYDVHWYQQLPRTAPKLLIYDNSNRPSGVPDRFSGSKSGSSASLAITGLQAEDEADYYCQSYDNSLSDSVLIGGGTKLTVLG
no binding (tested: 1 µg) | no binding (tested: 1 µg) | – | 11.8 nM | 4.05 nM | 3.49 nM | 40 to 100% | 0.185 nM | no binding (tested: 1 µg) | mAb 5F7.1 (antibody, human IgG2, lambda, fully human IgG2 lambda, Campaign 2) heavy: QVQLVQSGAEVKKPGASVKVPCKASGYTFTDYYINWVRQAPGQGLEWMGWINPNNGGTNYAQKFQGRVTMTRDTSISTAYMELRRLRSDDTAVYYCARERGGYEDWFDPWGQGTLVTVSSASTKGPSVFPLAPCSRSTSESTAALGCLVKDYFPEPVTVSWNSGALTSGVHTFPAVLQSSGLYSLSSVVTVPSSNFGTQTYTCNVDHKPSNTKVDKTVERKCCVECPPCPAPPVAGPSVFLFPPKPKDTLMISRTPEVTCVVVDVSHEDPEVQFNWYVDGVEVHNAKTKPREEQFNSTFRVVSVLTVVHQDWLNGKEYKCKVSNKGLPAPIEKTISKTKGQPREPQVYTLPPSREEMTKNQVSLTCLVKGFYPSDIAVEWESNGQPENNYKTTPPMLDSDGSFFLYSKLTVDKSRWQQGNVFSCSVMHEALHNHYTQKSLSLSPGK light: QSVLTQPPSVSGAPGQRVTISCTGSSSNIGAGFDVHWYQQLPVTAPKLLIYGNRNRPSGVPARFSGSKSGTSASLAITGLQAEDEAVYYCQSYDSSLTVFGGGTKLTVLGQPKANPTVTLFPPSSEELQANKATLVCLISDFYPGAVTVAWKADGSPVKAGVETTKPSKQSNNKYAASSYLSLTPEQWKSHRSYSCQVTHEGSTVEKTVAPTECS
